US6638508B2, “Modified avidin-type molecules as targeting agents for the liver and cells of the reticuloendothelial system” (Yeda Research and Development Co., Ltd., priority 1995, dated 2003)

Experiments:
[1] = Pt content in organs by flame atomic absorption spectrometry after CDDP complexed to BT1-CMdex-TNP-St or free CDDP; format: in vivo, mice; conditions: 2 h following injection of 300 μg free CDDP
Experimental: Pharmacokinetic studies confirmed the assumption of sustained release and prolonged maintenance of the complexed drug, as compared to the rapid elimination and inactivation of the free drug (Schechter et al., 1989a). Complexing CDDP to BT1-CMdex: BT1-CMdex (T-40) (0.15mM) was reacted with CDDP in DDW at a molar ratio of 1:60 for 24 h at 37° C. Following dialysis, the resulting BT1-CMdex-Pt contained 23-27 CDDP/CMdex. The complex BT1-CMdex-CDDP was reacted with TNP-St (at a ratio of 4:1) for targeting to the liver. […] To show the actual targeting of CDDP to the liver, CDDP was quantitatively determined in organs obtained at set time intervals following injection of 185 μg CDDP complexed to BT1-CMdex-TNP-St. Blood and organs were blended in an Ika Werk Ultra-Turrax blender (Jankel&Kunkel KG) in 5×Vol/tissue weight of 0.1N NaOH for 30 seconds. After centrifugation, the supernatants were filtered through Minisart 5 μm filter and the Pt content in the samples was determined by flame atomic absorption spectrometry (AA) at 265.9 nm in air-acetylene flame (in a Perkin Elmer 5100 PC spectrophotometer). Standards were prepared in a solution with matrix identical to that of the samples (i.e., normal tissues), to account for possible matrix interference. Results are expressed as %/g, i/organ or μg/organ in individual mice.

[2] = [3H] radioactivity in tissue extracts after BT1-CMdex-FUR ([3H]-uridine) alone or complexed to TNP-St; format: in vivo, mice; conditions: 1 and 4 h
Experimental: The actual targeting of FUR to the liver was carried out by a BT1-CMdex (T-40)-FUR product in which FUR was trace-labeled with [^3H] uridine. Mice were injected with BT1-CMdex-FUR-([^3H]-uridine) alone or complexed to TNP-St and at set time intervals blood was withdrawn, organs were dissected out and weighed. Tissue extracts were prepared by blending blood and organs in an Ika Werk Ultra-Turrax blender in 5× vol (ml)/tissue weight (g) of 0.1N NaOH for 30 sec. After centrifugation, 50 μl samples were counted for [^3H] radioactivity. Results are expressed as %/g tissue or %/organ. As shown in FIGS. 11A and 11B, levels of untargeted BT1-CMdex-FUR ([^3H]-uridine) were low. […] Radioactivity levels in other organs were in the range of 5%/g tissue or less than 1%/organ (FIG. 11B). It can be calculated that upon injection of 200μg TNP-St as a vehicle for BT1-CMdex-FUR, 25 μg of the drug can be accumulated per gram liver.

[3] = Biodistribution of radioiodinated (125I) proteins, modified avidin-type molecules and their complexes after i.v. injection
Experimental: (ii) Animals. Age-matched CD-1 male mice (6-12 weeks old) were used in the experiments.
(iii) Biodistribution experiments. Groups of age-(6-12 weeks) and weight-matched male CD-1 mice were given intravenous (i.v.) injections into the lateral tail vein of radioiodinated ^125I-TNP- or ^125I-lactosylated-St (most biodistribution experiments were done in the range of 1-10 μg protein, 1 mCi of ^125I) into the lateral tail vein. At the time intervals indicated, blood samples were withdrawn from the tail, the mice were killed and their organs were dissected out, washed in PBS, blotted dry, weighed and counted for radioactivity. […] In subsequent experiments, CD-1 male mice were used and the results are presented as %/g or %/organ for single a single mouse or %/g ±SD or %/organ ±SD for pairs of mice unless otherwise stated.
(ii) Radioiodination. Proteins (0.2 mg/0.2ml) in 0.2M phosphate buffer pH 8.0 were reacted for 2 min with Na^125I (0.5 mCi for biodistribution experiment and 2.5mCi for external monitoring) in the presence of Chloramine-T (2mg/ml, 10 or 100 μl) in PBS for 2 min. The reaction, which facilitates attachment of the radioactive iodine to tyrosines, was terminated by the addition of sodium metabisulfite (2mg/ml, 10 or 100 μl) in PBS for 2 min followed by the addition of potassium iodide and carrier BSA (1 mg of each/0.1 ml PBS). The radioiodinated proteins ^125I-TNP-proteins were then chromatographed on Sephadex G-25 in PBS. TNP modification can take place before or after radioiodination. Avidin and TNP-Av, being low in tyrosine content (molar ratio of 4 tyrosine/avidin as compared to 24 tyrosine/streptavidin), were radiolabeled by ^125I-biotinyl-tyrosine as described below in Example 6.

[4] = Toxicity studies: liver histology, body weight and survival; format: in vivo, CD-1 mice; conditions: dose of 300 μg, observed for 4 months
[5] = mouse, in vivo; cited from earlier work

## N.N.[Cl][Pt][Cl] [CDDP, cis-dichlorodiamine platinum (cisplatin)]
[1]
  Pt in liver or other organs: essentially no Pt could be found

## O=c1[nH]c(=O)n([C@@H]2O[C@H](CO)[C@@H](O)[C@H]2O)cc1F [FUR, 5-fluorouridine]
[2]
  tissue levels of free drug: around 1 %/g tissue

## DTPA-Gd substituted St: Gd-DTPA derivative of streptavidin
[3]; liver, 24 h, FIG. 16
  liver accumulation: did not accumulate in the liver

## Lac-St: lactosylated streptavidin, molar substitution ratio 5:1
[3]; mouse, in vivo
  non-hepatic values, fold lower than St or TNP-St: 10-20 fold

## TNP-Av: avidin modified with 2,4,6-trinitrophenyl (TNP) groups
[4]
  effect on body weight or survival: did not seem to affect
[3]; mouse, in vivo
  accumulation in the liver: 30-40 %/g
  accumulation in the spleen: 10-15 %/g

## TNP-NL-Av: TNP-modified NeutraLite Avidin, a deglycosylated form of avidin
[3]; mouse, in vivo
  accumulation in the spleen: up to 20 %/g

## ^125I-BT-St: radioiodinated biotinyl-tyrosine complexed to unmodified streptavidin
[3]; mouse, in vivo
  accumulation in whole kidney, % of injected dose of radioactivity/organ: 10%

## ^125I-BT-TNP-St: radioiodinated biotinyl-tyrosine complexed to TNP-streptavidin
[3]; mouse, in vivo
  accumulation in whole liver, % of injected dose of radioactivity/organ: 66-68%

## streptavidin
[5]
  % of the total injected dose accumulated in each kidney: 15%
  levels in other organs: 0.3-4 %/g
[3]; mouse, in vivo
  accumulation in the kidney: 70-80%
  blood levels: 22-33 %/g
  levels in other tissues, including the liver: < 10 %/g
